The supplement of paper PMC10567573

B1: MLL5 (parent)
chain: HDDGYMICCDKCSVWQHIDCMGID

Variants of: B1
Assay: protein stability index of a GFP-peptide fusion (GPS, HEK-293T) (PSI 1-6); higher = more stable
Settings: c terminus: a fixed tail appended
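Also: lentivirally expressed fusions sorted by FACS into six bins by GFP to DsRed ratio, PSI derived from sequencing read proportions per bin multiplied by bin number.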

Row | Variant | protein stability index
1 | HDDGYMICVDKCSVWQHIDCMGID [C9V] | 2.67
2 | HDDGYMICIDKCSVWQHIDCMGID [C9I] | 2.1
3 | HDDGYMICADKCSVWQHIDCMGID [C9A] | 2.56
4 | HDDGYMICCDKCSVWQHIGCMGID [D19G] | 2.84
5 | HDDGYMICCDKCSVWQHIMCMGID [D19M] | 2
6 | HDDGYMICCDKCSVWQHIECMGID [D19E] | 2.57
7 | HDDGYMICCDKCSVWQHITCMGID [D19T] | 2.33
8 | HDDGYMICCDKCSVWQHIICMGID [D19I] | 2.25
9 | HDDGYMICCDKCSVWQHINCMGID [D19N] | 1.91
10 | HDDGYMICCDKCSVWQHIYCMGID [D19Y] | 1.72
11 | HDDGYMICCDKCSVWQHICCMGID [D19C] | 2.94
12 | HDDGYMICCDKCSVWQHIHCMGID [D19H] | 2.2
13 | HDDVYMICCDKCSVWQHIDCMGID [G4V] | 2.1
14 | HDDMYMICCDKCSVWQHIDCMGID [G4M] | 1.74
15 | HDDHYMICCDKCSVWQHIDCMGID [G4H] | 2.29
16 | HDDWYMICCDKCSVWQHIDCMGID [G4W] | 2.56
17 | HDDDYMICCDKCSVWQHIDCMGID [G4D] | 2.61
18 | HDDCYMICCDKCSVWQHIDCMGID [G4C] | 2.53
19 | HDDQYMICCDKCSVWQHIDCMGID [G4Q] | 2.2
20 | HDDRYMICCDKCSVWQHIDCMGID [G4R] | 2.73
21 | HDDTYMICCDKCSVWQHIDCMGID [G4T] | 2.04
22 | HDDAYMICCDKCSVWQHIDCMGID [G4A] | 2.04
23 | HDDIYMICCDKCSVWQHIDCMGID [G4I] | 1.51
24 | HDDFYMICCDKCSVWQHIDCMGID [G4F] | 1.94

Row | Variant | protein stability index
25 | HDDGWMICCDKCSVWQHIDCMGID [Y5W] | 2.03
26 | HDDGFMICCDKCSVWQHIDCMGID [Y5F] | 1.74
27 | HDDGCMICCDKCSVWQHIDCMGID [Y5C] | 3.04
28 | HDDGIMICCDKCSVWQHIDCMGID [Y5I] | 2.98
29 | HDDGPMICCDKCSVWQHIDCMGID [Y5P] | 2.9
30 | HDDGAMICCDKCSVWQHIDCMGID [Y5A] | 3.46
31 | HDDGRMICCDKCSVWQHIDCMGID [Y5R] | 3.42
32 | HDDGVMICCDKCSVWQHIDCMGID [Y5V] | 2.96
33 | HDDGGMICCDKCSVWQHIDCMGID [Y5G] | 3.53
34 | HDDGMMICCDKCSVWQHIDCMGID [Y5M] | 2.83
35 | HDDGYMICCDKCSVWQHIDCLGID [M21L] | 2.34
36 | HDDGYMICCDKCSVWQHIDCPGID [M21P] | 3.14
37 | HDDGYMICCDKCSVWQHIDCNGID [M21N] | 2.73
38 | HDDGYMICCDKCSVWQHIDCHGID [M21H] | 2.61
39 | HDDGYMICCDKCSVWQHIDCAGID [M21A] | 2.94
40 | HDDGYMICCDKCSVWQHIDCVGID [M21V] | 2.34
41 | HDDGYMICCDKCSVWQHIDCSGID [M21S] | 2.41
42 | HDDGYMICCDKCSVWQHIDCTGID [M21T] | 2.91
43 | HDDGYMICCDKCSVWQHIDCMGIL [D24L] | 2.79
44 | HDDGYMICCDKCSVWQHIDCMGII [D24I] | 2.21
45 | HDDGYMICCDKCSVWQHIDCMGIN [D24N] | 2.09
46 | HDDGYMICCDKCSVWQHIDCMGIP [D24P] | 2
47 | HDDGYMICCDKCSVWQHIDCMGIV [D24V] | 2.47
48 | HDDGYMICCDKCSVWQHIDCMGIY [D24Y] | 1.61

Row | Variant | protein stability index
49 | HDDGYMICCDKCSVWQHIDCMGIC [D24C] | 2.68
50 | HDDGYMICCDKCSVWQHIDCMGYD [I23Y] | 2.34
51 | HDDGYMICCDKCSVWQHIDCMGDD [I23D] | 2.71
52 | HDDGYMICCDKCSVWQHIDCMGCD [I23C] | 3.67
53 | HDDGYMICCDKCSVWQHIDCMGRD [I23R] | 2.83
54 | HDDGYMICCDKCSVWQHIDCMGSD [I23S] | 2.58
55 | HDDGYMICCDKCSVWQHIDCMGVD [I23V] | 2.95
56 | HDDGYMICCDKCSVWQHIDCMGND [I23N] | 2.52
57 | HDDGYMICCDKCSVWQHIDCMGAD [I23A] | 2.56
58 | HDDGYMICCDKCSVWQHIDCMGPD [I23P] | 2.5
59 | HDDGYMICCDKCSVWQHIDCMGTD [I23T] | 2.85
60 | HDDGYMICCDKCAVWQHIDCMGID [S13A] | 1.73
61 | HDDGYMICCDKCEVWQHIDCMGID [S13E] | 2.55
62 | HDDGYMICCDKCKVWQHIDCMGID [S13K] | 2.43
63 | HDDGYMICCDKCLVWQHIDCMGID [S13L] | 2.18
64 | HEDGYMICCDKCSVWQHIDCMGID [D2E] | 2.53
65 | HIDGYMICCDKCSVWQHIDCMGID [D2I] | 2.87
66 | HPDGYMICCDKCSVWQHIDCMGID [D2P] | 2.16
67 | HLDGYMICCDKCSVWQHIDCMGID [D2L] | 3.26
68 | HQDGYMICCDKCSVWQHIDCMGID [D2Q] | 2.04
69 | HMDGYMICCDKCSVWQHIDCMGID [D2M] | 1.92
70 | HDDGYMICCDLCSVWQHIDCMGID [K11L] | 2.23
71 | HDDGYMICCDFCSVWQHIDCMGID [K11F] | 1.05
72 | HDDGYMICCDCCSVWQHIDCMGID [K11C] | 3.26

Row | Variant | protein stability index
73 | HDDGYMICCDNCSVWQHIDCMGID [K11N] | 2.31
74 | HDDGYMICCDGCSVWQHIDCMGID [K11G] | 3.03
75 | HDDGYMICCDICSVWQHIDCMGID [K11I] | 2
76 | HDDGYMHCCDKCSVWQHIDCMGID [I7H] | 3.55
77 | HDDGYMCCCDKCSVWQHIDCMGID [I7C] | 3.79
78 | HDDGYMACCDKCSVWQHIDCMGID [I7A] | 3.2
79 | HDDGYMVCCDKCSVWQHIDCMGID [I7V] | 2.79
80 | HDDGYMTCCDKCSVWQHIDCMGID [I7T] | 2.93
81 | HDDGYMKCCDKCSVWQHIDCMGID [I7K] | 3.45
82 | HDDGYMECCDKCSVWQHIDCMGID [I7E] | 3.23
83 | HDDGYMICCDKCSVWQHIDCMYID [G22Y] | 2.24
84 | HDDGYMICCDKCSVWQHIDCMDID [G22D] | 3.8
85 | HDDGYMICCDKCSVWQHIDCMSID [G22S] | 2.14
86 | HDDGYMICCDKCSVWQHIDCMRID [G22R] | 2.43
87 | HDDGYMICCDKCSVWQHIDCMHID [G22H] | 2.79
88 | HDDGYMICCDKCSVWQHIDCMAID [G22A] | 2.2
89 | HDDGYMICCDKCSVWQHIDCMCID [G22C] | 3.79
90 | HDDGYMICCDKCSVWQHIDCMNID [G22N] | 2.58
91 | HDDGYMICCDKCSVWQHIDCMEID [G22E] | 2.4
92 | HDDGYMICCDKCSVWQHIDCMKID [G22K] | 2.78
93 | HDDGYMICCDKCSVWQHIDCMIID [G22I] | 2.06
94 | HDDGYMICCDKTSVWQHIDCMGID [C12T] | 2.74
